Reference: US20190083615A1 (Merck Sharp & Dohme, published 2019)
Values joined by “and” are separate entries in the source; they are usually repeats but may differ in a detail not shown here. Equal entries are not always repeated.

T1: human LAG3 (Lymphocyte Activation Gene-3) expressed on cells (human, UniProt P18627 23-525)
T1 construct: also called hLAG3; CD223
T1 sequence: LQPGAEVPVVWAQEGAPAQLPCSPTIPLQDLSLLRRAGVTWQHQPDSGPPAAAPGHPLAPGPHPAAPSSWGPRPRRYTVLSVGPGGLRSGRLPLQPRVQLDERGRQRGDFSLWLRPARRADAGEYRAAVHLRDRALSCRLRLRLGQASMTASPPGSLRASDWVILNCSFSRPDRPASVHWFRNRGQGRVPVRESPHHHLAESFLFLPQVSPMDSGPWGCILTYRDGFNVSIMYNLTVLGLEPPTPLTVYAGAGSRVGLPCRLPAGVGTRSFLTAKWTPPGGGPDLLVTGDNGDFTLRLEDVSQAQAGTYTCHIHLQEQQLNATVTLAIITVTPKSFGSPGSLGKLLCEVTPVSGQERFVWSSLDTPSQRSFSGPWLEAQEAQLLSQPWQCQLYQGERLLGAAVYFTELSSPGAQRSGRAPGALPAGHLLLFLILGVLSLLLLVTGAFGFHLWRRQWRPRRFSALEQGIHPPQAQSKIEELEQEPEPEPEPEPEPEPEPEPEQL

T2: human LAG3-huFc recombinant protein (human, UniProt P18627 23-450, limits assumed, biotinylated in the runs with humanized and chimeric antibodies (Example 11))
T2 construct: also called human LAG3-Fc; huLAG3-huFc; not shown: human Fc
T2 sequence: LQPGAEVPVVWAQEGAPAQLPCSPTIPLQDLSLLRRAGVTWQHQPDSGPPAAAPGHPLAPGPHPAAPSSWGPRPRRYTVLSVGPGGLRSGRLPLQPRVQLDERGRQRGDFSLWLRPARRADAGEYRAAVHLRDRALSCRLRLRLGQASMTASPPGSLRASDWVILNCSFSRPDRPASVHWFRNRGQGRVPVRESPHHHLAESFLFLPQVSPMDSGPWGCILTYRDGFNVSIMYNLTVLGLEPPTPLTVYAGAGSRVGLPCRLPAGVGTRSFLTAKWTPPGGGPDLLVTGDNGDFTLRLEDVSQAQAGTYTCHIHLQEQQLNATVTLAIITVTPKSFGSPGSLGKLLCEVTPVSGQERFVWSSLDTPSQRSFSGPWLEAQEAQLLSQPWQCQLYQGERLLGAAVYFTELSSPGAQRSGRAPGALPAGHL

T3: Human LAG3-His: [VEGF leader]-LAG3_H-[His9G] (human, UniProt P18627 23-450)
T3 construct: also called human LAG3-His tagged recombinant protein; hLAG3-His
T3 sequence: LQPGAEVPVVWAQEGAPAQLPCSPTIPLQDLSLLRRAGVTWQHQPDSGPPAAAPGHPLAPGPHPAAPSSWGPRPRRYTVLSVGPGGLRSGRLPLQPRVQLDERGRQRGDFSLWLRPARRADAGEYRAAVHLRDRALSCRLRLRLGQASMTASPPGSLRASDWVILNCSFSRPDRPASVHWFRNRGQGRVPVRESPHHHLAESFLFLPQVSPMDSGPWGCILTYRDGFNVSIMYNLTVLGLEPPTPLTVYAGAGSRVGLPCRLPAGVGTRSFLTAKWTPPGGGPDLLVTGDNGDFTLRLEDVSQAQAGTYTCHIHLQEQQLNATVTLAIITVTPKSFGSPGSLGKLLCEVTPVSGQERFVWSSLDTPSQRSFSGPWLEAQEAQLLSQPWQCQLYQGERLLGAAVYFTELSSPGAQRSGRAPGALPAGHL


How the values were obtained:
[1] = target: T1, human LAG3 (Lymphocyte Activation …); assay: cell based KinExA, BaF/3 cells transfected with human LAG3 (n=2)
Protocol: The affinities of the LAG3 antibodies for LAG3 were determined using a cell based Kinetic Exclusion Assay (KinExA). Cell based KinExA can be used to measure the affinity of a molecule for a binding partner on a cell surface (Rathanaswami et al. Analylitical Biochemistry 373(1): 52-60 (2008); Xie et al. J. Immunol. Methods 304 (1-2): 1-14 (2005)). In this case, BaF/3 cells were stably transfected with human and cynomolgus monkey LAG3 proteins. Transfected cells or the parental BaF/3 control cell line were grown to a density of 1.7×10⁶ to 3.2×10⁶ cells per ml at 37° C., 120 RPM, 5% CO₂, in 1X RPMI 1640 media with 10% FBS, 10 ng/ml IL-3, 5 μg/ml puromycin. Cells were concentrated, mixed with 15 pM or 150 pM antibody in cell culture media and incubated 24 to 48 hours at room temperature while rotating at 20 to 30 RPM. Cells were present at a top concentration of 2×10⁷ cells per ml (parental BaF/3 or cynomolgus LAG3 transfectants) or 1×10⁷ cells per ml (human LAG3 transfectants) and diluted in a 2-fold, 18 member series. The cells were pelleted and free antibody in the supernatant was measured using a KinExA 3200 instrument (Sapidyne, Id., USA). […] Antibody on the beads was labeled with 1.5 μg/ml Alexa Fluor® 647 conjugated goat anti-human (Fab′)₂ (Jackson ImmunoResearch Laboratories), washed and the fluorescent signal was read all using the KinExA™ 3200. The data from the 15 pM and 150 pM concentrations of each antibody were fit simultaneously using KinExA™ Pro n-Curve Analysis software version 4.0.11 (Sapidyne).

[2] = target: T2, human LAG3-huFc recombinant protein; assay: flow cytometry, blockade of biotinylated human LAG3-huFc binding to MHC class II on Daudi cells, streptavidin-PE
Protocol: (§1) Mouse anti-human LAG3 and humanized anti-LAG3 clones were tested for their ability to block hLAG3 interaction with human MHC Class II. Daudi cells (ATCC #CCL-213) were used as a cell line positive for human MHC class II expression. Daudi cells were blocked with 10 ug/ml of goat IgG in HBSS and 2% BCS on ice for 30 minutes and 0.5×10⁶ cells/sample were aliquoted into a 96-well V-bottom plate and blocking buffer removed. […] Cells were pelleted by centrifugation at 1200 rpm and washed twice with HBSS/2% BCS. […] Cells were washed twice as described above, resuspended in HBSS/2% BCS and read on the FACSCalibur.

[3] = target: T1, human LAG3 (Lymphocyte Activation …); assay: flow cytometry, PHA-activated human CD8+ T cells (3 donors)
Protocol: (§2) Binding of LAG-3 mAb clones to primary T-cells was assessed using human and cynomolgous monkey (cyno) peripheral blood mononuclear cells (PBMC). Human blood was obtained from the local donors; cyno blood was obtained from Bioreclamation. PBMC were isolated from the whole blood using Ficoll-Paque Plus (GE Healthcare, Cat# 17-1440-03) density gradient centrifugation at 524×g for 40 minutes. PBMC were collected from the medium:plasma interface and washed 2 times with phosphate buffered saline (PBS). The residual red blood cells were lysed using ammonium-chloride-potassium red blood cell lysing solution (ACK, GIBCO, cat# A10492-010). Cynomolgus monkey or human PBMC (3×10⁶/ml) were stimulated with 4 μg/ml PHA (Sigma, L2769) for 48 h and 20 h, respectively. For flow cytometric analysis, 1×10⁶ PHA-activated PBMCs were used per staining in 50 μl FACS staining buffer (BD, cat# 554657). LAG-3 mAb clones or correspondent isotype controls were incubated with human or cyno PBMS followed by detection using goat anti-mouse IgG-PE (BD 550589). […] Sample acquisition was performed on an LSR II flow cytometer and the data were analyzed using FlowJo software version 10.0.6 (Tree Star, Inc.).
(§3) The data represent 3 human and 3 cynomolgus donors after stimulation with 4 ug/ml of PHA for 40 hours prior to staining.

[4] = target: T1, human LAG3 (Lymphocyte Activation …); assay: flow cytometry, PHA-activated human CD4+ T cells (3 donors)
Protocol: as §2, §3

[5] = target: T2, human LAG3-huFc recombinant protein; assay: flow cytometry, blockade of human LAG3-huFc (2 ug/ml) binding to MHC class II on Daudi cells
Protocol: as §1, with “LAG3” for “LAG3 and humanized anti-LAG3”

[6] = target: T3, Human LAG3-His: [VEGF …; assay: SPR (Biacore T200), antibody captured on goat anti-mouse Fc, human LAG3-His as analyte, 1:1 Langmuir fit
Protocol: Mouse anti-human LAG3 clones listed above were injected over the immobilized goat anti-mouse surfaces at 1 ug/mL for a capture level of 40 RU. HBS-EP+ buffer (BR-1006-69) was used as the running buffer with a flow rate of 30 μL/min.
Varying concentrations of human LAG3-His protein ranging from 0.15 nM to 18.8 nM, at a flow rate of 40 μL/min were injected over the antibody surfaces.
Background subtraction binding sensorgrams were used for analyzing the rate constant of association (kₐ) and dissociation (kd), and the equilibrium dissociation constant KD. The resulting data sets were fitted with a 1:1 Langmuir Binding Model using the Biacore T200 evaluation software (version 2.0).

[7] = target: T1, human LAG3 (Lymphocyte Activation …); assay: cell-based or functional assay
[8] = target: T2, human LAG3-huFc recombinant protein; assay: flow cytometry, blockade of human LAG3-huFc binding to MHC class II on Daudi cells
Protocol: as §1, with “LAG3” for “LAG3 and humanized anti-LAG3”

Kd [1] [nM]	IC50 [2] [nM]	EC50 [3] [nM]	EC50 [4] [nM]	IC50 [5] [nM]	Kd [6] [nM]	koff [6] [s⁻¹]	kon [6] [M⁻¹ s⁻¹]	EC50 for IL-2 rescue, hLAG3-3A9 T cell system [7]	IC50 [8] [nM]	Binder
0.006	2.6	–	–	–	–	–	–	–	–	Ab5: humanized light chain 45AGX Humanized x[LAG3_H] mAb (LB145.22D2.E1.D1 (VL3)) Kappa (PX) and humanized heavy chain 57AHH Humanized x[LAG3_H] mAb … (antibody, Humanized 22D2, IgG4 S228P/kappa; also called Hu22D2 VH6/VL3 (Ab 5); hu22D2 VH6/VL3) heavy: not shown light: DIVMTQTPLSLSVTPGQPASISCKASQSLDYEGDSDMNWYLQKPGQPPQLLIYGASNLESGVPDRFSGSGSGTDFTLKISRVEAEDVGVYYCQQSTEDPRTFGGGTKVEIKRTVAAPSVFIFPPSDEQLKSGTASVVCLLNNFYPREAKVQWKVDNALQSGNSQESVTEQDSKDSTYSLSSTLTLSKADYEKHKVYACEVTHQGLSSPVTKSFNRGEC
0.01	2.1	0.049	0.057	–	–	–	–	–	–	Ab7: humanized light chain 45AGX Humanized x[LAG3_H] mAb (LB145.22D2.E1.D1 (VL3)) Kappa (PX) and humanized heavy chain 21AHG Humanized x[LAG3_H] mAb … (antibody, Humanized 22D2 N55S, IgG4 S228P/kappa; also called Hu22D2 VH6/VL3 N55S (Ab 7); hu22D2 VH6/VL3 N55S) heavy: not shown light: DIVMTQTPLSLSVTPGQPASISCKASQSLDYEGDSDMNWYLQKPGQPPQLLIYGASNLESGVPDRFSGSGSGTDFTLKISRVEAEDVGVYYCQQSTEDPRTFGGGTKVEIKRTVAAPSVFIFPPSDEQLKSGTASVVCLLNNFYPREAKVQWKVDNALQSGNSQESVTEQDSKDSTYSLSSTLTLSKADYEKHKVYACEVTHQGLSSPVTKSFNRGEC
–	–	–	–	2.1	0.00277	3.84e-05	1.39e+07	1.06 nM and 1.65 nM	2.1	mouse anti-human LAG3 antibody LB145.22D2.E1.1D1 (antibody, mouse IgG2a, V domains shown, also called Lag3 clone 22D2; LB145.22D2.E1.D1) VH: EVLLLQSGPELVKPGTSVKIPCKASGYTFTDYNVDWVKQRHGKGLEWIGDINPNNGGTIYSQKFKGKATLTVDKSSSTAFMELRSLTSEDTAVYFCARNYRWFGAMDHWGQGTSVTVSS VL: DIVLTQSPASLAVSPGQRATISCKASQSLDYEGDSDMNWYQQKPGQPPRLLISGASNLESGIPARFSGSGSGTDFTVNIHPVEEEDAATYYCQQSTEDPRTFGGGTKLEIK
